In the supplement of paper PMC12667976:

B1: library; numbered along this chain (parent)
chain: MATDAALRRLLRLHRTEIAVAVDSAFPLLHALADHDVVPEDKFQETLHLKEKEGCPQAFHALLSWLLTQDSTAILDFWRVLFKDYNLERYGRLQPILDSFPKDVDLSQPRKGRKPPAVPKALVPPPRLPTKRKASEEARAAAPAALTPRGTASPGSQLKAKPPKKPESSAEQQRLPLGNGIQTMSASVQRAVAMSSGDVPGARGAVEGILIQQVFESGGSKKCIQVGGEFYTPSKFEDSGSGKNKARSSSGPKPLVRAKGAQGAAPGGGEARLGQQGSVPAPLALPSDPQLHQKNEDECAVCRDGGELICCDGCPRAFHLACLSPPLREIPSGTWRCSSCLQATVQEVQPRAEEPRPQEPPVETPLPPGLRSAGEEVRGPPGEPLAGMDTTLVYKHLPAPPSAAPLPGLDSSALHPLLCVGPEGQQNLAPGARCGVCGDGTDVLRCTHCAAAFHWRCHFPAGTSRPGTGLRCRSCSGDVTPAPVEGVLAPSPARLAPGPAKDDTASHEPALHRDDLESLLSEHTFDGILQWAIQSMARPAAPFPS

Variants of: B1
Assay: AIRE transcriptional activation functional score (insulin promoter-GFP; nonsense median 0, synonymous median 1) (normalised score); higher = higher AIRE activity (more reporter activation)
Conditions: with insulin promoter-GFP reporter in HEK293
Method: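 Deep mutational scan of full-length human AIRE (codon-optimized cDNA, DT-POPCode NNN libraries over three regions) integrated at a Bxb1 landing pad in HEK293 cells carrying an insulin core promoter-GFP reporter at a Flp-In site. Cells were sorted for the top 10% GFP about 14 days after transfection. Variant frequency log-ratios (select vs non-select, TileSeq) were rescaled so that the nonsense median is 0 and the synonymous median is 1, then averaged over biological replicates.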

AIRE transcriptional activation functional score of substitutions, site by site:
G269: L 1.36 | M 0.571 | N 0.306 | P 1.44 | Q 0.849 | R 1.13 | S 1.2 | T 1.51 | V 1.05 | W 1.81 | Y 0.676
E270: A 0.795 | C 1.08 | D 1.37 | F 0.977 | G 1.11 | H 1.56 | I 0.55 | K 0.735 | L 1.41 | M 1.2 | N 1.01 | P 1.64 | Q 1.15 | R 0.723 | S 0.795 | T 0.69 | V 1.36 | W 1.36 | Y 1.38
A271: C 1 | D 1.22 | E 1.1 | F 0.885 | G 0.722 | H 1.66 | I 1.1 | K 1.1 | L 1.24 | M 1.38 | N 1.11 | P 1.02 | Q 0.693 | R 0.714 | S 1.09 | T 0.847 | V 1.09 | W 1.6 | Y 0.83
R272: A 0.71 | C 1.3 | D 1.21 | E 1.08 | F 1.09 | G 0.842 | H 0.444 | I 1.08 | K 0.494 | L 1.01 | M 1.31 | N 1.37 | P 0.879 | Q 0.947 | S 1.02 | T 0.941 | V 0.896 | W 0.893 | Y 0.677
L273: A 0.967 | C 0.741 | D 0.505 | E 0.817 | F 0.977 | G 0.95 | H 0.264 | I 1.07 | K 0.434 | M 1.19 | N 0.862 | P 1.11 | Q 1.72 | R 0.646 | S 0.975 | T 0.77 | V 1.02 | W 1.37 | Y 1.28
G274: A 0.889 | C 0.942 | D 1.14 | E 0.611 | F 0.89 | H 1.4 | I 0.929 | K 1.24 | L 1 | N 1 | P 0.734 | Q 0.131 | R 0.983 | S 1.09 | T 0.86 | V 1.05 | W 1.46 | Y 1.07
Q275: A 0.853 | C 1.08 | D 1.33 | E 1.26 | F 1.11 | G 0.894 | H 1.01 | I 1.12 | K 1.06 | L 1.03 | M 1.04 | N 1.01 | P 1.19 | R 1.03 | S 0.826 | T 1.11 | V 1.01 | W 1.74 | Y 1.35
Q276: A 1.12 | C 1.26 | D 1.11 | E 0.831 | F 1.05 | G 1.39 | H 1.26 | I 1.83 | K 0.954 | L 0.779 | M 1 | N 1.52 | P 1.05 | R 0.822 | S 0.925 | T 1.14 | V 0.873 | W 0.869 | Y 1.26
G277: A 1.46 | C 1.38 | E 1.3 | F 1.23 | H 0.919 | I 1.24 | K 1.22 | L 0.959 | M 1.01 | N 1.2 | P 0.526 | Q 0.825 | R 1.21 | S 0.459 | T 0.758 | V 1.1 | Y 0.553
S278: A 0.851 | C 0.735 | D 0.859 | E 0.763 | F 1 | G 1.34 | H 1.22 | I 1.04 | K 1.28 | L 1.01 | M 1.35 | N 0.723 | P 1.12 | Q 1.16 | R 0.819 | T 1.23 | V 1.09 | W 1.19 | Y 1.29
V279: A 1.45 | C 1.36 | D -0.0439 | E 1.08 | F 1.69 | G 1.08 | H 1.06 | I 0.721 | K 0.637 | L 1 | M 1.34 | N 0.603 | P 1.06 | Q -0.249 | R 1.04 | S 1.24 | T 0.815 | W 1.4 | Y 1.26
P280: A 0.981 | C 0.574 | D 0.642 | E 1.13 | F 1.58 | G 1.17 | H 1.04 | I 0.993 | K 0.978 | L 1.28 | M 1.23 | N 1.37 | Q 1.14 | R 1.01 | S 1.1 | T 1.04 | V 1.2 | W -0.397 | Y 1.42
A281: C 0.996 | D 0.674 | E -0.175 | F 1.63 | G 1.5 | H 1.11 | I 0.957 | K 1.67 | L 1.31 | M 0.425 | N 0.445 | P 0.84 | Q 1.02 | R 1.15 | S 0.99 | T 0.867 | V 0.872 | W 1.53 | Y 1.32
P282: A 0.929 | C 2.16 | D 1.05 | E 0.555 | F 0.638 | G 1.03 | H 0.91 | I 1.43 | K 1.2 | L 1.31 | M 1.1 | N -0.335 | Q 0.976 | R 0.839 | S 0.614 | T 1.27 | V 1.38 | W 1.1 | Y 1.17
L283: A 1.02 | C 0.771 | D 1.01 | E 0.987 | F 1.17 | G 0.798 | H 1.15 | I 0.854 | K 1.19 | M 1.34 | N 0.486 | P 0.953 | Q 0.784 | R 1 | S 1.01 | T 1.02 | V 1.12 | W 1.14 | Y 1.19
A284: C 0.943 | D 1.06 | E 0.63 | F 1.2 | G 1.03 | H 0.932 | I 1.23 | K 0.964 | L 1.02 | M 0.962 | N 0.828 | P 0.905 | Q 1.39 | R 1.12 | S 1.1 | T 0.876 | V 1.06 | W 1.16 | Y 1.32
L285: A 1.37 | C 0.894 | D 1.56 | F 0.835 | G 0.429 | H 0.689 | I 1.02 | K 0.713 | N 0.918 | P 1.17 | Q 1.22 | R 1.02 | S 0.921 | T 0.845 | V 0.989 | Y 0.979
P286: A 0.97 | C 0.46 | D 0.448 | E 1 | F 1.54 | G 1.05 | H 0.652 | I 0.986 | K 0.495 | L 1.14 | M 1.36 | N 0.454 | Q 1.07 | R 1.17 | S 0.834 | T 1.07 | V 1.26 | W 1.61 | Y 1.65
S287: A 1.17 | C 1.07 | D 0.579 | E 0.811 | F 0.994 | G 1.22
